From IntAct's records for PubMed 18688255

B1: Cleavage and polyadenylation specificity factor subunit 2 (Homo sapiens), Q9P2I0 (parent)
chain: MTSIIKLTTLSGVQEESALCYLLQVDEFRFLLDCGWDEHFSMDIIDSLRKHVHQIDAVLLSHPDPLHLGALPYAVGKLGLNCAIYATIPVYKMGQMFMYDLYQSRHNTEDFTLFTLDDVDAAFDKIQQLKFSQIVNLKGKGHGLSITPLPAGHMIGGTIWKIVKDGEEEIVYAVDFNHKREIHLNGCSLEMLSRPSLLITDSFNATYVQPRRKQRDEQLLTNVLETLRGDGNVLIAVDTAGRVLELAQLLDQIWRTKDAGLGVYSLALLNNVSYNVVEFSKSQVEWMSDKLMRCFEDKRNNPFQFRHLSLCHGLSDLARVPSPKVVLASQPDLECGFSRDLFIQWCQDPKNSIILTYRTTPGTLARFLIDNPSEKITEIELRKRVKLEGKELEEYLEKEKLKKEAAKKLEQSKEADIDSSDESDIEEDIDQPSAHKTKHDLMMKGEGSRKGSFFKQAKKSYPMFPAPEERIKWDEYGEIIKPEDFLVPELQATEEEKSKLESGLTNGDEPMDQDLSDVPTKCISTTESIEIKARVTYIDYEGRSDGDSIKKIINQMKPRQLIIVHGPPEASQDLAECCRAFGGKDIKVYMPKLHETVDATSETHIYQVRLKDSLVSSLQFCKAKDAELAWIDGVLDMRVSKVDTGVILEEGELKDDGEDSEMQVEAPSDSSVIAQQKAMKSLFGDDEKETGEESEIIPTLEPLPPHEVPGHQSVFMNEPRLSDFKQVLLREGIQAEFVGGVLVCNNQVAVRRTETGRIGLEGCLCQDFYRIRDLLYEQYAIV
partner: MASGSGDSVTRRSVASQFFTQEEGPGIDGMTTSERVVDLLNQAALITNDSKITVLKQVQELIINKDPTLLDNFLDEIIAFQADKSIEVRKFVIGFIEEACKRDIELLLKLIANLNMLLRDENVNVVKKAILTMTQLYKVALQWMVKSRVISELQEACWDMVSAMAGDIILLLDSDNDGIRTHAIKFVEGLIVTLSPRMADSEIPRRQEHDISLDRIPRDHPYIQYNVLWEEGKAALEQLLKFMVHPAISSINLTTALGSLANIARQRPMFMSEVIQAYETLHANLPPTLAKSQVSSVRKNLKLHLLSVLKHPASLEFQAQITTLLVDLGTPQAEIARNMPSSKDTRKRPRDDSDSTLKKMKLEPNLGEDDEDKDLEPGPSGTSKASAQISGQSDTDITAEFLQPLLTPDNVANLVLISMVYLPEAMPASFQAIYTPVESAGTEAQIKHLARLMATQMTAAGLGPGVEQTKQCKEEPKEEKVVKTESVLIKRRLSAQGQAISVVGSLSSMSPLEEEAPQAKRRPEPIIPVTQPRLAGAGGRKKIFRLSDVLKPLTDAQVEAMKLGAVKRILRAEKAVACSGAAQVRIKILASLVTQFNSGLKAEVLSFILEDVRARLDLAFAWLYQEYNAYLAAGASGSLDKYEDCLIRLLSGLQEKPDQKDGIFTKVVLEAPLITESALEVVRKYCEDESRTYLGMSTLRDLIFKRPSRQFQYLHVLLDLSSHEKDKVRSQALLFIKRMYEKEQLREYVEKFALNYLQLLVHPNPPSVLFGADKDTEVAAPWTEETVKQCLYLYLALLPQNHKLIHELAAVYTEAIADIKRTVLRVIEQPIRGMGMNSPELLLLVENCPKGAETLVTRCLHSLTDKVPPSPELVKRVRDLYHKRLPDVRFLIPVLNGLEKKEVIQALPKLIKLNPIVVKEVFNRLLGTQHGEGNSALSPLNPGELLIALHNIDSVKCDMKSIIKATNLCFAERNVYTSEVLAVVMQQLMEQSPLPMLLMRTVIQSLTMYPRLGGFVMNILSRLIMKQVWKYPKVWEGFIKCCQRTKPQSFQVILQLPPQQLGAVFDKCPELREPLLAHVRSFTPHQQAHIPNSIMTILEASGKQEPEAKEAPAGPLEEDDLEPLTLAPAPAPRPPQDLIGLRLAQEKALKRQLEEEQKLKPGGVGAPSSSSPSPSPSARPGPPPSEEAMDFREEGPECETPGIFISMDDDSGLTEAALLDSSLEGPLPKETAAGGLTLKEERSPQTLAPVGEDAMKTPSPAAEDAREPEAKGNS
B2: Cleavage and polyadenylation specificity factor subunit 2 (Homo sapiens), Q9P2I0 (parent)
chain: B1 chain
partner: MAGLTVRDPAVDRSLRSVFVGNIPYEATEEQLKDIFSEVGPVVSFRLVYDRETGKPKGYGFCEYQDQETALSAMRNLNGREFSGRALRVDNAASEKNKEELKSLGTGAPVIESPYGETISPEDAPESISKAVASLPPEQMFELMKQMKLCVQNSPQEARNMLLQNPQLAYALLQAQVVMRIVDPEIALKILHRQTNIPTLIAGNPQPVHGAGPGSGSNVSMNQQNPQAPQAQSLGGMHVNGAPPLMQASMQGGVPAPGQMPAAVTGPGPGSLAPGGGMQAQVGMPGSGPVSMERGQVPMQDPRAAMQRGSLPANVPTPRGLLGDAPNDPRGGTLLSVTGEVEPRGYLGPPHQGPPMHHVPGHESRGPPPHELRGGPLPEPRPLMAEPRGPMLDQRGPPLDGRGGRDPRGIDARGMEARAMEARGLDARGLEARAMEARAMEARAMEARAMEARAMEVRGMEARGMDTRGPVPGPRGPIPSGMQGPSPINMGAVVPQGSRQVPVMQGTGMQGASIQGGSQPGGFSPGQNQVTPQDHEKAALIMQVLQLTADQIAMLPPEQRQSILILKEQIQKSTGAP

Variants of: B1
Settings: with sympk_human SYMPK

Variant | effect of a mutation on the interaction
H67A | decreasing interaction

Variants of: B2
Settings: with cstf2_human CSTF2, P33240

Variant | effect of a mutation on the interaction
R543A | disrupting interaction
